Five sequences from the supplement of paper PMC12455559 can be followed below.

± gives the standard deviation of the averaged measurements.

Data set [1] in a line: melting temperature (DSF); higher = more thermostable. Summed up: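 Enzymes made in E. coli C41(DE3) were nickel-bead purified and cut free with SUMO protease before testing. Differential scanning fluorimetry gave each melting temperature. For this, 5 μL 5X Sypro Orange was added to 45 μL enzyme (0 to 0.3 mg/mL) in sealed PCR plates, and a Bio-Rad CFX96 read fluorescence from 25 °C over 250 cycles of 0.3 °C each, ramping at 0.3 °C/s.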

The nature of data set [2]: purified protein yield per well (BCA); higher = higher soluble expression. Summed up:
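Candidate enzymes were produced in E. coli C41(DE3) grown in 2 mL autoinduction cultures containing 100 µg/mL kanamycin, first at 37 °C for 2 h and then at 18 °C for 40 h. After cell lysis, protein was captured on Ni-charged magnetic beads and freed by SUMO protease cleavage on an OT-2 robot. Purified protein yield per well was read with the Pierce Rapid Gold BCA kit. Values under 25 ug (0.1 mg/mL) fall below the detection threshold.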

The nature of data set [3]: PET hydrolysis, aromatic products released after 48 h (umol product/mg enzyme); higher = more PET depolymerization activity. The procedure, abridged: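 PET hydrolysis activity was taken as the aromatic product in the supernatant and expressed per mg enzyme. This product was measured by absorbance at 260 and 280 nm against buffer blanks. Each reaction held 5 μg (50 μL) of tagless, SUMO-cleaved candidate enzyme purified on nickel beads, plus 3.5 mg amorphous PET film or crystalline PET powder in 450 μL buffer: 50 mM NaCitrate (pH 4.5, 5.5), 50 mM NaPhosphate (pH 6.5, 7.5) or glycine (pH 8.5). Plates were sealed and left 48 h at 40 or 60 °C without shaking.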

Where [4] appears, read: substrate: aFilm, 40 °C, pH 4.5.
The mark [5] stands for this setting: substrate: aFilm, 40 °C, pH 5.5.
Where [6] appears, read: substrate: aFilm, 40 °C, pH 6.5.
Setting [7] is: substrate: aFilm, 40 °C, pH 7.5.
Setting [8] is: substrate: aFilm, 60 °C, pH 4.5.
The mark [9] stands for this setting: substrate: aFilm, 60 °C, pH 5.5.
The mark [10] stands for this setting: substrate: aFilm, 60 °C, pH 6.5.
[11] abbreviates: substrate: aFilm, 60 °C, pH 7.5.
[12] abbreviates: substrate: cryPow, 40 °C, pH 4.5.
Setting [13] is: substrate: cryPow, 40 °C, pH 5.5.
Where [14] appears, read: substrate: cryPow, 40 °C, pH 6.5.
[15] abbreviates: substrate: cryPow, 40 °C, pH 7.5.
[16] abbreviates: substrate: cryPow, 60 °C, pH 4.5.
Where [17] appears, read: substrate: cryPow, 60 °C, pH 5.5.
The mark [18] stands for this setting: substrate: cryPow, 60 °C, pH 6.5.
[19] abbreviates: substrate: cryPow, 60 °C, pH 7.5.

With “ADNPYQRGPDPTRTSVTAVNGPFANTSVSVPTGQGFNGGRIYYPTDTSQGTFGAVAISPGYTALFSAELAWMGPWLASHGFVVIGIETNSTNDFDTARGTQLLAALDYLTQRSSVRDRVDPNRLAVSGHSMGGGGALSAAARRSSLKAVVGITPYSPSSNLANVRVPTMVVSGQADTVVTPSYALNLYNSLPSTTESVYLEVAGGDHGFMVGRSNPVLVRTMLPFLKMFVDNDTRYSQFLCPLMDNSGVVTYRSTCPLLPTPTTPPPTTGPTTPPPTTPPTTTPPPSGSTGQIVGTQSNRCIDVPNSSRNNGTRVQLYDCHGQANQTWTYDSSTKQLRVYGDMCLDASGSGNGAAVQIYSCHNQTNQQWNINSNGTISGVQSNRCLDAWSTNNGAQIQLYDCHGQTNQQFRIRA [TEP168]”, in data set [1], the melting temperature was determined as 65.2 C. For the same sequence, the “purified protein yield per well” value in data set [2] was found to be 213 µg. In addition, the PET hydrolysis in data set [3] (setting [4]), in data set [3] (setting [5]), in data set [3] (setting [6]), in data set [3] (setting [7]), in data set [3] (setting [8]) and in data set [3] (setting [9]) was less than 3 in each case. Further, the PET hydrolysis is less than 3 in data set [3] (setting [10]); less than 3 in data set [3] (setting [11]); 4 in data set [3] (setting [12]); 9 in data set [3] (setting [13]); 9 ± 1.4 in data set [3] (setting [14]); 4.5 ± 0.71 in data set [3] (setting [15]). The PET hydrolysis in data set [3] (setting [16]), in data set [3] (setting [17]), in data set [3] (setting [18]) and in data set [3] (setting [19]) was less than 3 in each case.

On to “ADNPYQRGPDPTRTSVTAVNGPFANTSVSVPTGYGFNGGRIYYPTDTSQGTFGAIAISPGYTALFSAELAWMGPWLASHGFVVIGIETNSRNDFDTARGTQLLAALDYLTQQSPVRDRVDPNRLAVAGHSMGGGGALSAAIRRPSLKAVVGIAPYSPSSNLANDRVPTMIFSGQADTVVTPSYATGLYNSLPATTESVYLEVAGADHGFMVGRSNPVMVRTMLPFVKMFIDDDARYSQFLCPLLDNSGVVTYRSTCPLLPTTPTTPPTGTPTPTPTPTQTTPPPGSASQIVGTQSGRCVDVPNASTTNGTRVQLYDCNRQTNQAWTYTSTKQLQVYGTMCLDAAGTGNGAAVQIYSCHSQTNQQWNVNSNGTISSVQSGRCLDAWSTANGAQIQLYDCHGQTNQQFRLAALA [ESM095]”, for which the melting temperature in data set [1] came to 63.7 C. Further, in data set [2], the “purified protein yield per well” value came out at 147 µg. Moreover, the PET hydrolysis in data set [3] (setting [12]) is 11; in data set [3] (setting [13]) it was 21; in data set [3] (setting [14]) it was 22; in data set [3] (setting [15]), 10; in data set [3] (setting [16]) it was less than 3; in data set [3] (setting [17]), less than 3. In addition, the PET hydrolysis in data set [3] (setting [18]) and in data set [3] (setting [19]) was less than 3 in each case.

In data set [1], “ADNPYQRGPDPTRTSVTAVNGPFANTSVSVPTGYGFNGGRIYYPTDTSQGTFGAIAISPGYTALFSAELAWMGPWLASHGFVVIGIETNSRNDFDTARGTQLLAALDYLTQQSPVRDRVDPNRLAVAGHSMGGGGALSAATRRPSLKAVVGIAPYSPSSNLANDRVPTMIFAGQADTVVTPSYATGLYNSLPATTESVYVEVAGADHGFMVGRSNPVMVRTMLPFVKMFIDNDTRYSQFLCPLLDSSGVVTYRSTCPLLPSTPTPTDPPTPTDPPTVPPGSANEIVGTQSGRCVDVPNASRTNGTRVQLYGCNKQTNQAWTYTSSKQLQVYGNMCLDAAGTGNGAAVQIYSCHNQTNQQWNVNSNGTISNVQSGRCLDAWSTANGAQIQLYDCHGQTNQQFRLAALAG [ESM069]” had a melting temperature of 63.4 C. For the same sequence, in data set [2], the “purified protein yield per well” value was determined as 213 µg. The PET hydrolysis in data set [3] (setting [4]) is less than 3; in data set [3] (setting [5]), 4; in data set [3] (setting [6]), less than 3; in data set [3] (setting [7]), less than 3; in data set [3] (setting [8]), less than 3; in data set [3] (setting [9]), less than 3. Besides, the PET hydrolysis is less than 3 in data set [3] (setting [10]); less than 3 in data set [3] (setting [11]); 10.5 ± 2.1 in data set [3] (setting [12]); 29 ± 2.8 in data set [3] (setting [13]); 42 in data set [3] (setting [14]); 17 ± 1.4 in data set [3] (setting [15]). Also, the PET hydrolysis is less than 3 in data set [3] (setting [16]), 4.5 ± 0.71 in data set [3] (setting [17]), 4 in data set [3] (setting [18]) and less than 3 in data set [3] (setting [19]).

In data set [1], “ADNPYQRGPDPTRTSVTAVNGPFANTSVSVPTGYGFNGGRIYYPTDTSQGTFGAIAISPGYTALFSAELAWMGPWLASHGFVVIGIETNSRNDFDTARGTQLLAALDYLTQQSPVRDRVDPNRLAVAGHSMGGGGALSAATRRSSLKAVVGIAPYSPSSNLANDRVPTMIFAGQADTVVTPSYATNLYNSLPTTTESVYLEVAGADHGFMVGRSNPVMVRTMLPFVKMFVDNDTRYSQFLCPLADSSGVVTYRSTCPLLPSTPTTPTATPTNTPTPTASPTVPPGSASQIVGTQSGRCIDVPNASHTNGTRVALYDCNRQSNQSWTYTSTKQLQVYGTMCLDAAGSGNGAAVQIYGCHSQTNQQWNVNSNGTISSVQSGRCLDVWSTANGAQVQLYDCHGQTNQQFRLVSLAR [ESM137]” displayed a melting temperature of 62.2 C. The “purified protein yield per well” value in data set [2] is 140 µg. Besides, the PET hydrolysis is 10 in data set [3] (setting [12]); 18 in data set [3] (setting [13]); 17 in data set [3] (setting [14]); 8 in data set [3] (setting [15]); less than 3 in data set [3] (setting [16]); less than 3 in data set [3] (setting [17]). For the same sequence, the PET hydrolysis in data set [3] (setting [18]) and in data set [3] (setting [19]) was less than 3 each time.

In the case of “ADNPYQRGPDPTRTSVTAVNGPFANTSVSVPTGYGFNGGRIYYPTDTSQGTFGAIAISPGYTALFSAELAWMGPWLASHGFVVIGIETNSRNDFDTARGTQLLAALDYLTQQSPVRDRVDPNRLAVSGHSMGGGGALSAAMRRSSLKAVVGITPYSPSSNLANDRVPTMIISGQADTVVTPSYALGLYNSIPTTTKSVYLEVAGGDHGFMVGRSNPVMVRTMLPFVKMFIDNDARYSQFLCPLLDNSGVVTYRSTCPLLPTTPPTGTPTPTPTNSPTTPPPGSASGIVGAQSGRCIDVPNASRSNGTRVQLYDCNRQSNQSWTYTANKQLRVYGDMCLDAAGSGNGAAVQIYSCHNQTNQQWNVNSNGTITGVQSGRCLDVWSTSNGAQVQLYDCHGQANQQFRLAPLA [ESM059]”, the melting temperature in data set [1] amounted to 65.8 C. Besides, the “purified protein yield per well” value in data set [2] turned out to be 311 µg. Further, the PET hydrolysis in data set [3] (setting [4]) is less than 3; in data set [3] (setting [5]), 2 ± 2.8; in data set [3] (setting [6]) it was 1.5 ± 2.1; in data set [3] (setting [7]), less than 3; in data set [3] (setting [8]), less than 3; in data set [3] (setting [9]), less than 3. Moreover, the PET hydrolysis in data set [3] (setting [10]) is less than 3; in data set [3] (setting [11]), less than 3; in data set [3] (setting [12]), 10; in data set [3] (setting [13]), 21 ± 1.4; in data set [3] (setting [14]) it was 26; in data set [3] (setting [15]), 21.5 ± 2.1. Also, the PET hydrolysis in data set [3] (setting [16]) was less than 3; in data set [3] (setting [17]), 5; in data set [3] (setting [18]), 4; in data set [3] (setting [19]), 2 ± 2.8.
